Results from patent US20250320252A1 (Scripps Research, published 2025).
Where two headings read alike, the source gives them in different places. Bridge positions count the residues as written; N and C are the ends. Square brackets hold non-standard residues; d marks the D form. Ends that are not written are not given here. C20L5A = not defined here; Nle = CCCC[C@H](N)C(=O)O; L5A = not defined here; K4 = not defined here; K5 = not defined here; Aib = CC(C)(N)C(=O)O

What was measured:
Assay in all cases: cell-based or functional assay
human GLP-1 receptor [1] = target: T1, human GLP-1 receptor (human, UniProt P43220 24-463)
human GIP receptor [2] = target: T2, human GIP receptor (human, UniProt P48546 22-466)
T2 sequence (looked up): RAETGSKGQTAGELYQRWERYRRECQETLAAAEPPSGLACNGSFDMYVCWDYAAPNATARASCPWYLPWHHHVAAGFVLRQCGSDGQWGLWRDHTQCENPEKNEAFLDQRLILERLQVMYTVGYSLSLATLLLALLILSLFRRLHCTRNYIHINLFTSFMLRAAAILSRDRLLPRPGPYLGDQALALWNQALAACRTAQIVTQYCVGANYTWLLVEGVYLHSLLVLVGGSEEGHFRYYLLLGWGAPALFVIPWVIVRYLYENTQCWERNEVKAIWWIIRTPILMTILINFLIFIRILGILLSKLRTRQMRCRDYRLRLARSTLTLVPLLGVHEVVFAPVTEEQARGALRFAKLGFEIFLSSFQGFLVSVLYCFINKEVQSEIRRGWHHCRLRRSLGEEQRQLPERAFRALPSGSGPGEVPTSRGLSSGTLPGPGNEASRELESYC

human GIP receptor [3] = target: T2, human GIP receptor; remark: listed apart in the source
human GIP receptor [4] = target: T2, human GIP receptor; remark: listed apart in the source
human GLP-1 receptor [5] = target: T1, human GLP-1 receptor; remark: listed apart in the source
human GIP receptor [6] = target: T2, human GIP receptor; remark: listed apart in the source
human GLP-1 receptor [7] = target: T1, human GLP-1 receptor; remark: listed apart in the source
human GLP-1 receptor [8] = target: T1, human GLP-1 receptor; remark: listed apart in the source

Binder | EC50 [nM] of receptor-mediated cAMP synthesis (human GLP-1 receptor [1]) [nM] | EC50 [nM] of receptor-mediated cAMP synthesis (human GIP receptor [2]) [nM] | EC50 of receptor-mediated cAMP synthesis, GIPR (nM), 02/19 (human GIP receptor [3]) [nM] | EC50 of receptor-mediated cAMP synthesis, GIPR (nM), 03/26 (human GIP receptor [3]) [nM] | EC50 of receptor-mediated cAMP synthesis, GIPR (nM), average (human GIP receptor [3]) [nM] | EC50 [nM] of receptor-mediated cAMP synthesis (human GIP receptor [4]) [nM] | other results
H-Y[Aib]EGTFT[dS]DY[dS]IYKDKQAA[Nle]KFVAWLLAGGPSSGAPPPS-NH2 (linker 14-21 via K5; not fully specified; reading uncertain) [ZA-43 - K5] | 3.74 | 15.7 |  |  |  |  | 
H-Y[Aib]EGTFHSDYDIYKDKQAA[Aib]KFVQWLLAGGPSSGAPPPS-NH2 (bridge 14-21 via K4; reading uncertain) [ZA-41 - K4] | 13.8 | 5.31 |  |  |  |  | 
Y[Aib]EGTFTSDYSIYCDKQAA[Aib]CFVNWLLAGGPSSGAPPPS-NH2 (linker 14-21 via C20L5A; reading uncertain) [C(14-21)-C20L5A] |  |  | 0.07 | 0.04 | 0.05 | 0.05 | EC50 of receptor-mediated cAMP synthesis, GIPR (nM), 03/25 (human GIP receptor [3]): 0.04 nM
Y[Aib]EGTFISDVSIYCDKQAA[Aib]CFVNWLIAGGPSSGAPPPS-NH2 (linker 14-21 via L5A; not fully specified; reading uncertain) [7I, 10V, 27I, C(14-21) - L5A] |  |  |  |  |  | 12.6 | EC50 [nM] of receptor-mediated cAMP synthesis (human GLP-1 receptor [5]): 83.9 nM
H-Y[Aib]EGTFHSDYDIYKDKQAA[Nle]KFVAWLLAGGPSSGAPPPS-NH2 (linker 14-21 via K4; not fully specified; reading uncertain) [ZA-42 - K4] | 18.8 | 20.4 |  |  |  |  | 
H-Y[Aib]EGTFT[dS]DY[dS]IYKDKQAA[Nle]KFVAWLLAGGPSSGAPPPS-NH2 (linker 14-21 via K4; not fully specified; reading uncertain) [ZA-43 - K4] | 1.32 | 11.3 |  |  |  |  | 
Y[Aib]EGTFTSDYSIYLDKCAQ[Aib]AFVCWLIAQGPSSGAPPPS-NH2 (linker 17-24 via C20L5A; not fully specified; reading uncertain) [19Q, 21A, 27I, 29Q, C(17-24) - C20L5A] |  |  |  |  |  |  | EC50 [nM] of receptor-mediated cAMP synthesis (human GIP receptor [6]): 0.02 nM
Y[Aib]EGTYTNDYSIYLDKCAA[Aib]EFVCWLIAGGPSSGAPPPS-NH2 (linker 17-24 via C20L5A; not fully specified; reading uncertain) [6Y, 8N, 27I, C(17-24)-C20L5A] |  |  | 2.48 | 3.29 | 2.88 |  | EC50 of receptor-mediated cAMP synthesis, GLP1R (nM), 02/19 (human GLP-1 receptor [7]): 0.06 nM; EC50 of receptor-mediated cAMP synthesis, GLP1R (nM), 3/25 (human GLP-1 receptor [7]): 0.11 nM; EC50 of receptor-mediated cAMP synthesis, GLP1R (nM), 03/26 (human GLP-1 receptor [7]): 0.07 nM; EC50 of receptor-mediated cAMP synthesis, GLP1R (nM), average (human GLP-1 receptor [7]): 0.08 nM
H-Y[Aib]EGTFHSDYDIYKDKQAA[Nle]KFVAWLLAGGPSSGAPPPS-NH2 (linker 14-21 via K5; not fully specified; reading uncertain) [ZA-42 - K5] | ~13700 | 303 |  |  |  |  | 
H-Y[Aib]EGTFHSDYDIYKDKQAA[Aib]KFVQWLLAGGPSSGAPPPS-NH2 (bridge 14-21 via K5; reading uncertain) [ZA-41 - K5] | 83.9 | 12.6 |  |  |  |  | 
Y[Aib]EGTFTSDYSIYCDKQAA[Aib]CFVNWLIAGGPSSGAPPPS-NH2 (linker 14-21 via C20L5A; not fully specified; reading uncertain) [mCMV266 (27I, C(14-21)-C20L5A)] |  |  | 0.08 | 0.06 | 0.07 | 0.07 | EC50 of receptor-mediated cAMP synthesis, GLP1R (nM), 02/19 (human GLP-1 receptor [7]): 0.03 nM; EC50 of receptor-mediated cAMP synthesis, GLP1R (nM), 3/25 (human GLP-1 receptor [7]): 0.05 nM; EC50 of receptor-mediated cAMP synthesis, GLP1R (nM), 03/26 (human GLP-1 receptor [7]): 0.06 nM; EC50 of receptor-mediated cAMP synthesis, GLP1R (nM), average (human GLP-1 receptor [7]): 0.05 nM; EC50 of receptor-mediated cAMP synthesis, GIPR (nM), 03/25 (human GIP receptor [3]): 0.06 nM; EC50 [nM] of receptor-mediated cAMP synthesis (human GLP-1 receptor [5]): 0.05 nM
Y[Aib]EGTYTSDYSIYCDKQAA[Aib]CFVNWLIAGGPSSGAPPPS-NH2 (linker 14-21 via C20L5A; not fully specified; reading uncertain) [6Y, 27I, C(14-21)-C20L5A] |  |  | 0.5 | 0.6 | 0.56 |  | EC50 of receptor-mediated cAMP synthesis, GLP1R (nM), 02/19 (human GLP-1 receptor [7]): 0.04 nM; EC50 of receptor-mediated cAMP synthesis, GLP1R (nM), 3/25 (human GLP-1 receptor [7]): 0.07 nM; EC50 of receptor-mediated cAMP synthesis, GLP1R (nM), 03/26 (human GLP-1 receptor [7]): 0.07 nM; EC50 of receptor-mediated cAMP synthesis, GLP1R (nM), average (human GLP-1 receptor [7]): 0.06 nM; EC50 of receptor-mediated cAMP synthesis, GIPR (nM), 03/25 (human GIP receptor [3]): 0.58 nM
Y[Aib]EGTFTSDYSIYLDKCAA[Aib]EFVCWLLAGGPSSGAPPPS-NH2 (linker 17-24 via L5A; not fully specified; reading uncertain) [C(17-24)-L5A] |  |  |  |  |  |  | EC50 [nM] of receptor-mediated cAMP synthesis (human GLP-1 receptor [8]): 0.11 nM; EC50 [nM] of receptor-mediated cAMP synthesis (human GIP receptor [6]): 0.05 nM
Y[Aib]EGTFISDVSIYCDKQAA[Aib]CFVNWLIAGGPSSGAPPPS-NH2 (linker 14-21 via C20L5A; not fully specified; reading uncertain) [7I, 10V, 27I, C(14-21) - C20L5A] |  |  |  |  |  | 303 | EC50 [nM] of receptor-mediated cAMP synthesis (human GLP-1 receptor [5]): ~13700 nM
Y[Aib]EGTFTSDYSIYLDKCAA[Aib]EFVCWLLAGGPSSGAPPPS-NH2 (linker 17-24 via C20L5A; not fully specified; reading uncertain) [C(17-24)-C20L5A] |  |  | 0.04 | 0.03 | 0.03 |  | EC50 [nM] of receptor-mediated cAMP synthesis (human GLP-1 receptor [8]): 0.11 nM; EC50 [nM] of receptor-mediated cAMP synthesis (human GIP receptor [6]): 0.05 nM; EC50 of receptor-mediated cAMP synthesis, GLP1R (nM), 02/19 (human GLP-1 receptor [7]): 0.07 nM; EC50 of receptor-mediated cAMP synthesis, GLP1R (nM), 3/25 (human GLP-1 receptor [7]): 0.1 nM; EC50 of receptor-mediated cAMP synthesis, GIPR (nM), 03/25 (human GIP receptor [3]): 0.02 nM
Y[Aib]EGTYTSDYSIYLDKCAA[Aib]EFVCWLIAGGPSSGAPPPS-NH2 (linker 17-24 via C20L5A; not fully specified; reading uncertain) [6Y, 27I, C(17-24)-C20L5A] |  |  | 0.27 | 0.25 | 0.26 |  | EC50 of receptor-mediated cAMP synthesis, GLP1R (nM), 02/19 (human GLP-1 receptor [7]): 0.05 nM; EC50 of receptor-mediated cAMP synthesis, GLP1R (nM), 3/25 (human GLP-1 receptor [7]): 0.07 nM; EC50 of receptor-mediated cAMP synthesis, GLP1R (nM), 03/26 (human GLP-1 receptor [7]): 0.06 nM; EC50 of receptor-mediated cAMP synthesis, GLP1R (nM), average (human GLP-1 receptor [7]): 0.06 nM; EC50 of receptor-mediated cAMP synthesis, GIPR (nM), 03/25 (human GIP receptor [3]): 0.27 nM
Y[Aib]EGTFTSDYSIYCDKQAA[Aib]CFVNWLIAGGPSSGAPPPS-NH2 (linker 14-21 via L5A; not fully specified; reading uncertain) [27I, C(14-21)-L5A] |  |  |  |  |  | 0.03 | EC50 [nM] of receptor-mediated cAMP synthesis (human GLP-1 receptor [5]): 0.04 nM
Y[Aib]EGTFTSDYSIYKDKQAA[Aib]KFVNWLLAGGPSSGAPPPS-NH2 (bridge 14-21 via K5; reading uncertain) [mCLZ715] | 0.02 | 0.02 |  |  |  |  | 
Y[Aib]EGTFTSDYSIYCDKQAA[Aib]CFVNWLLAGGPSSGAPPPS-NH2 (linker 14-21 via L5A; not fully specified; reading uncertain) [mCMC759 (C(14-21)-L5A)] |  |  |  |  |  | 0.03 | EC50 [nM] of receptor-mediated cAMP synthesis (human GIP receptor [6]): 0.03 nM
